Reference: the Immune Epitope Database (IEDB)

What was measured:
HLA-A*02:01 [1] = test: IEDB peptide-MHC binding, purified MHC/direct/fluorescence; filed as Kd, often an IC50 or EC50 that approximates it; ≥ and ≤ were set here for values at or beyond the usual limits of such assays
HLA-A*02:03 = test: as above
HLA-A*02:12 = test: as above
HLA-A*02:16 = test: as above
HLA-A*02:19 = test: as above
HLA-A*03:01 = test: as above
HLA-A*26:01 = test: as above
HLA-A*69:01 = test: as above
HLA-B*15:01 = test: as above
HLA-B*18:01 = test: as above
HLA-B*27:03 = test: as above
HLA-B*39:01 = test: as above
HLA-B*46:01 = test: as above
HLA-B*51:01 = test: as above
HLA-B*57:01 = test: as above
HLA-A*02:11 = test: as above
HLA-A*24:03 = test: as above
HLA-A*29:02 = test: as above; details: source organism: Entamoeba histolytica HM-1:IMSS
HLA-B*15:17 = test: as above
HLA-A*26:02 = test: IEDB peptide-MHC binding, purified MHC/competitive/fluorescence; filed as Kd, often an IC50 or EC50 that approximates it; ≥ and ≤ were set here for values at or beyond the usual limits of such assays; details: source organism: Hantaan virus 76-118
HLA-C*08:02 = test: IEDB peptide-MHC binding, purified MHC/direct/fluorescence; filed as Kd, often an IC50 or EC50 that approximates it; ≥ and ≤ were set here for values at or beyond the usual limits of such assays
HLA-A*02:01 [2] = test: IEDB peptide-MHC binding, purified MHC/competitive/fluorescence; filed as Kd, often an IC50 or EC50 that approximates it; ≥ and ≤ were set here for values at or beyond the usual limits of such assays; details: source organism: Yersinia pestis Nepal516
HLA-B*35:01 = test: as above; details: source organism: Yersinia pestis Nepal516
HLA-A*80:01 = test: IEDB peptide-MHC binding, purified MHC/direct/fluorescence; filed as Kd, often an IC50 or EC50 that approximates it; ≥ and ≤ were set here for values at or beyond the usual limits of such assays; details: source organism: Yellow fever virus
HLA-A*24:02 = test: IEDB peptide-MHC binding, purified MHC/competitive/fluorescence; filed as Kd, often an IC50 or EC50 that approximates it; ≥ and ≤ were set here for values at or beyond the usual limits of such assays
HLA-A*01:01 = test: IEDB peptide-MHC binding, purified MHC/direct/fluorescence; filed as Kd, often an IC50 or EC50 that approximates it; ≥ and ≤ were set here for values at or beyond the usual limits of such assays; details: source organism: Giardia lamblia ATCC 50803
HLA-A*11:01 = test: as above; details: source organism: Giardia lamblia ATCC 50803
HLA-A*31:01 = test: as above; details: source organism: Giardia lamblia ATCC 50803
HLA-B*07:02 = test: as above; details: source organism: Giardia lamblia ATCC 50803
HLA-B*08:01 = test: as above; details: source organism: Giardia lamblia ATCC 50803
HLA-B*08:02 = test: as above; details: source organism: Giardia lamblia ATCC 50803
HLA-B*27:05 = test: as above; details: source organism: Giardia lamblia ATCC 50803
HLA-B*38:01 = test: as above; details: source organism: Giardia lamblia ATCC 50803
HLA-B*40:01 = test: as above; details: source organism: Giardia lamblia ATCC 50803
HLA-B*48:01 = test: as above; details: source organism: Giardia lamblia ATCC 50803
HLA-B*58:01 = test: as above; details: source organism: Giardia lamblia ATCC 50803
HLA-C*07:02 = test: as above; details: source organism: Listeria monocytogenes EGD-e
HLA-C*14:02 = test: as above; details: source organism: Listeria monocytogenes EGD-e
HLA-C*15:02 = test: as above; details: source organism: Listeria monocytogenes EGD-e
HLA-A*68:02 = test: as above; details: source organism: Crocodilepox virus
[3] = source organism: Brucella suis 1330
[4] = source organism: Entamoeba histolytica HM-1:IMSS
[5] = source organism: Yellow fever virus
[6] = source organism: Giardia lamblia ATCC 50803
[7] = source organism: Listeria monocytogenes EGD-e
[8] = source organism: Crocodilepox virus

DPPEPLVRI was tested, and the Kd (HLA-A*02:01 [1]; [3]) was ≥ 20 µM, the Kd (HLA-A*02:03; [3]) was ≥ 20 µM and the Kd (HLA-A*02:12; [3]) was ≥ 20 µM. The Kd (HLA-A*02:16; [3]) was ≥ 20 µM, the Kd (HLA-A*02:19; [3]) was ≥ 20 µM and the Kd (HLA-A*03:01; [3]) was ≥ 20 µM. The Kd (HLA-A*26:01; [3]) was ≥ 20 µM, the Kd (HLA-A*69:01; [3]) was ≥ 20 µM and the Kd (HLA-B*15:01; [3]) was ≥ 20 µM. The Kd (HLA-B*18:01; [3]) was ≥ 20 µM, the Kd (HLA-B*27:03; [3]) was ≥ 20 µM and the Kd (HLA-B*39:01; [3]) was ≥ 20 µM. For the same sequence, the Kd (HLA-B*46:01; [3]) was ≥ 20 µM, the Kd (HLA-B*51:01; [3]) was 1.87 µM and the Kd (HLA-B*57:01; [3]) was ≥ 20 µM.

For DSFAKQPQW, the Kd (HLA-A*02:01 [1]; [4]) was ≥ 20 µM, the Kd (HLA-A*02:03; [4]) was ≥ 20 µM and the Kd (HLA-A*02:11; [4]) was ≥ 20 µM. For the same sequence, the Kd (HLA-A*02:12; [4]) was ≥ 20 µM, the Kd (HLA-A*02:16; [4]) was ≥ 20 µM and the Kd (HLA-A*02:19; [4]) was ≥ 20 µM. For the same sequence, the Kd (HLA-A*03:01; [4]) was ≥ 20 µM, the Kd (HLA-A*24:03; [4]) was ≥ 20 µM and the Kd (HLA-A*26:01; [4]) was ≥ 20 µM. The Kd (HLA-A*29:02) was ≥ 20 µM, the Kd (HLA-A*69:01; [4]) was ≥ 20 µM and the Kd (HLA-B*15:01; [4]) was ≥ 20 µM. The Kd (HLA-B*15:17; [4]) was 0.204 µM, the Kd (HLA-B*27:03; [4]) was ≥ 20 µM and the Kd (HLA-B*39:01; [4]) was ≥ 20 µM. The Kd (HLA-B*46:01; [4]) was ≥ 20 µM.

For ETYKELKAH, the Kd (HLA-A*26:01; source organism: Orthohantavirus hantanense) was 0.25 µM and the Kd (HLA-A*26:02) was 0.0118 µM.

Sequence FVADYLARF has a Kd (HLA-C*08:02; source organism: Yersinia pestis Nepal516) of 2.77 µM, a Kd (HLA-A*02:01 [2]) of 0.082 µM and a Kd (HLA-B*35:01) of 0.0033 µM.

With GTGDSRLTY the Kd (HLA-A*02:01 [1]; [5]) was ≥ 20 µM, the Kd (HLA-A*69:01; [5]) was ≥ 20 µM and the Kd (HLA-A*80:01) was 0.2 µM.

For GVEGIGLQY, the Kd (HLA-A*80:01) was 0.338 µM.

LYKKLKREITF gave a Kd (HLA-A*24:02; source organism: Influenza A virus (A/goose/Hong Kong/437-6/1999(H5N1))) of 0.0051 µM.

QPWTPVSSF was tested, and the Kd (HLA-A*01:01) was ≥ 20 µM, the Kd (HLA-A*02:01 [1]; [6]) was ≥ 20 µM and the Kd (HLA-A*03:01; [6]) was ≥ 20 µM. For the same sequence, the Kd (HLA-A*11:01) was ≥ 20 µM, the Kd (HLA-A*26:01; [6]) was ≥ 20 µM and the Kd (HLA-A*31:01) was ≥ 20 µM. For the same sequence, the Kd (HLA-A*69:01; [6]) was ≥ 20 µM, the Kd (HLA-B*07:02) was 0.134 µM and the Kd (HLA-B*08:01) was ≥ 20 µM. For the same sequence, the Kd (HLA-B*08:02) was ≥ 20 µM, the Kd (HLA-B*15:01; [6]) was ≥ 20 µM and the Kd (HLA-B*15:17; [6]) was 2.62 µM. The Kd (HLA-B*18:01; [6]) was 2.44 µM, the Kd (HLA-B*27:05) was ≥ 20 µM and the Kd (HLA-B*38:01) was ≥ 20 µM. The Kd (HLA-B*40:01) was ≥ 20 µM, the Kd (HLA-B*46:01; [6]) was ≥ 20 µM and the Kd (HLA-B*48:01) was ≥ 20 µM. For the same sequence, the Kd (HLA-B*51:01; [6]) was ≥ 20 µM, the Kd (HLA-B*57:01; [6]) was ≥ 20 µM and the Kd (HLA-B*58:01) was 19.1 µM.

With RYGPALSI the Kd (HLA-A*24:02; source organism: Influenza A virus H3N2) was ≤ 0.0001 µM.

RYPRSVLTF was tested, and the Kd (HLA-A*24:03; [7]) was ≤ 0.001 µM, the Kd (HLA-C*07:02) was 0.044 µM and the Kd (HLA-C*14:02) was ≤ 0.001 µM. The Kd (HLA-C*15:02) was ≥ 20 µM and the Kd (HLA-A*24:02; [7]) was ≤ 0.0001 µM.

With STAPTGSWF the Kd (HLA-C*08:02; source organism: human gammaherpesvirus 4) was ≥ 20 µM.

SWFNSFLTHAL showed a Kd (HLA-A*24:02; source organism: Influenza A virus (A/X-31(H3N2))) of 0.15 µM.

With VVARLGVPY the Kd (HLA-A*02:01 [1]; [8]) was ≥ 20 µM, the Kd (HLA-A*02:03; [8]) was ≥ 20 µM and the Kd (HLA-A*02:11; [8]) was ≥ 20 µM. For the same sequence, the Kd (HLA-A*02:12; [8]) was ≥ 20 µM, the Kd (HLA-A*02:16; [8]) was ≥ 20 µM and the Kd (HLA-A*02:19; [8]) was ≥ 20 µM. For the same sequence, the Kd (HLA-A*03:01; [8]) was ≥ 20 µM, the Kd (HLA-A*24:03; [8]) was ≥ 20 µM and the Kd (HLA-A*26:01; [8]) was ≥ 20 µM. The Kd (HLA-A*68:02) was ≥ 20 µM, the Kd (HLA-B*27:03; [8]) was ≥ 20 µM and the Kd (HLA-B*39:01; [8]) was ≥ 20 µM. For the same sequence, the Kd (HLA-B*51:01; [8]) was ≥ 20 µM and the Kd (HLA-B*57:01; [8]) was ≥ 20 µM.
